Source: paper PMC10976963

Target: actin of the cytoskeleton of living U2OS cells (human (endogenous in U2OS)) (UniProt P60709)
Experiment: FRAP; fluorescence recovery after photobleaching at lamellipodia of living U2OS cells expressing mEGFP-DARPins or mCherry-LifeAct, 37 °C, single-exponential fit

FRAP half-recovery time (τ1/2) at lamellipodia: 0.47 s
Substance: mCherry-LifeAct (peptide)
